In patent US20240343803A1 (SHANDONG SIMCERE BIOPHARMACEUTICAL, published 2024):
Where two headings read alike, the source gives them in different places. One block for each binder: values may come before it.

Tests used:
[1] = biological target: T1, human PVRIG (AcroBiosystems, Cat NO. PVG-H52H4) (human, UniProt Q6DKI7 41-171, limits assumed); assay: ELISA, coated human PVRIG
T1 construct: Bought protein with His tag; also called human PVRIG-his; human PVRIG protein
T1 sequence (looked up): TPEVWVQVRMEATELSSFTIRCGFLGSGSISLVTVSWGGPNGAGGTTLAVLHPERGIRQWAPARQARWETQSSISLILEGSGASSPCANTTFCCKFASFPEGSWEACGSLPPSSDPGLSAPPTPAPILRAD
Experimental: (§1) The ELISA plate was pre-coated with 50 μL/well of 1.0 μg/mL human PVRIG (AcroBiosystems, Cat NO. PVG-H52H4) or 50 μL/well of 0.5 μg/mL cynomolgus monkey PVRIG (Novoprotein, Cat NO. C09B). The tested antibodies were serially diluted (initial concentration 13 nM, 3-fold serial dilution, 12 concentration points), added into the plate (50 μL/well) and incubated at 37° C. for 2.0 hours. After washing the plate, the Goat anti-human IgG Fc-HRP (Merck, Cat NO. AP113P) working solution (dilution ratio 1:5000, 50 μL/well) were added into wells and incubated at 37° C. for 1.0 hour. A HRP substrate, TMB (KPL, Cat NO. 5120-0077) was added into wells after washing the plate again and incubated at 37° C. for 10 minutes for color development. After adding a termination solution to terminate the reaction, the absorbance value was read by a microplate reader (PE, Ensight-HH3400). An antibody binding curve was drawn with molar concentration of antibodies as the abscissa and the corresponding OD value as the ordinate. The EC50 value was calculated by using a Four Parameter Logistic Fit (GraphPadPrism9). […] The positive control antibodies are COM701-hIgG1, PVRIG-A50-H1b and PVRIG-A105-H1; and the negative control antibodies are anti-Fluorescein-hIgG1 (in house). The binding results of the 4 humanized bispecific antibodies to human PVRIG protein are shown in FIG. 41 and Tables 40 and 41, and the binding results to cynomolgus monkey PVRIG are shown in FIG. 42 and Tables 40 and 41. […] The binding of LC-BsAb-002 and LC-BsAb-006 to human PVRIG protein is slightly weaker than that of the corresponding monoclonal antibody (PVRIG-A50-H1b) and the positive control (COM701-hIgG1).

[2] = biological target: T2, cynomolgus monkey PVRIG (Novoprotein, Cat NO. C09B) (cynomolgus monkey, UniProt A0A2K5WVV8 41-171); assay: ELISA, coated cynomolgus PVRIG
T2 construct: Bought protein; construct not described; also called cynomolgus monkey PVRIG protein
T2 sequence: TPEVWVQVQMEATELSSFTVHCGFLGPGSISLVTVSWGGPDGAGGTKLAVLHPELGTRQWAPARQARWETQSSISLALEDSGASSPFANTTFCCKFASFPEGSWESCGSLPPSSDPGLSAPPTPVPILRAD
Experimental: (§2) The ELISA plate was pre-coated with 50 μL/well of 1.0 μg/mL human PVRIG (AcroBiosystems, Cat NO. PVG-H52H4) or 50 μL/well of 0.5 μg/mL cynomolgus monkey PVRIG (Novoprotein, Cat NO. C09B). The tested antibodies were serially diluted (initial concentration 13 nM, 3-fold serial dilution, 12 concentration points), added into the plate (50 μL/well) and incubated at 37° C. for 2.0 hours. After washing the plate, the Goat anti-human IgG Fc-HRP (Merck, Cat NO. AP113P) working solution (dilution ratio 1:5000, 50 μL/well) were added into wells and incubated at 37° C. for 1.0 hour. A HRP substrate, TMB (KPL, Cat NO. 5120-0077) was added into wells after washing the plate again and incubated at 37° C. for 10 minutes for color development. After adding a termination solution to terminate the reaction, the absorbance value was read by a microplate reader (PE, Ensight-HH3400). An antibody binding curve was drawn with molar concentration of antibodies as the abscissa and the corresponding OD value as the ordinate. The EC50 value was calculated by using a Four Parameter Logistic Fit (GraphPadPrism9). The smaller the EC50 value, the stronger the ability of the antibodies binds to human or cynomolgus monkey PVRIG. The positive control antibodies are COM701-hIgG1, PVRIG-A50-H1b and PVRIG-A105-H1; and the negative control antibodies are anti-Fluorescein-hIgG1 (in house). The binding results of the 4 humanized bispecific antibodies to human PVRIG protein are shown in FIG. 41 and Tables 40 and 41, and the binding results to cynomolgus monkey PVRIG are shown in FIG. 42 and Tables 40 and 41. […] The binding of LC-BsAb-002 and LC-BsAb-006 to human PVRIG protein is slightly weaker than that of the corresponding monoclonal antibody (PVRIG-A50-H1b) and the positive control (COM701-hIgG1).

[3] = biological target: T1, human PVRIG (AcroBiosystems, Cat NO. …); assay: ELISA, coated human PVRIG; remark: listed apart in the source
Experimental: as §2

[4] = biological target: T3, human PVRIG-mFc protein (Acro, PVG-H5253) (human, UniProt Q6DKI7 41-171, limits assumed); assay: HTRF competition, PVRIG-mFc with Bio-CD112-His as competitor
T3 construct: extracellular domain; Bought protein; also called PVRIG-ECD-mFc; not shown: mouse Fc tag of the bought protein
T3 sequence (looked up): T1 sequence (looked up)
Experimental: (§3) PVRIG-mFc (ACRO Biosystems, Cat NO. PVG-H5253) and Bio-CD112-His (Sino Biological, Cat NO. 10005-H08H) were diluted to 0.5 μg/mL, respectively. Streptavidin-Tb cryptate (Cisbio) and PAb anti mouse IgG-XL665 (Cisbio) were diluted to 20 μg/mL and 0.8 μg/mL, respectively. The tested antibodies were diluted from the initial concentration of 120 nM, by 3-fold serial dilution for 12 concentration points. The diluted PVRIG-mFc, Bio-CD112-His, Streptavidin-Tb Crytate and PAb anti mouse IgG-XL665 were mixed at 1:1:1:1, and added into a 384-well plate (PE, Cat NO. 6007299), 10 μL/well. 10 μL/well of serially diluted antibodies was added into wells, centrifuged at 1500 rpm for 30s, and incubated at 37° C. for 1 hour. The plate was read on the microplate reader (PE, Envision2105) with wavelengths of 665 nm and 620 nm. […] A Four Parameter Logistic Fit was performed with the molar concentration of the antibodies as the abscissa and Ratio as the ordinate to calculate IC50. The smaller the IC50, the better the effect of the antibody block the binding of PVRIG to PVRL2. The positive controls in this experiment are COM701-hIgG1, PVRIG-A50-H1b and PVRIG-A105-H1; and the negative control antibody is anti-Fluorescein-hIgG1 (in house). The effect of 4 humanized bispecific antibodies blocking the binding of PVRIG to PVRL2 is shown in FIG. 51 and Tables 44 and 45. […] The blocking effect of LC-BsAb-002 is better than its corresponding monoclonal antibody (PVRIG-A50-H1b) and the positive control (COM701-hIgG1). The blocking effect of LC-BsAb-006 is better than its corresponding monoclonal antibody (PVRIG-A50-H1b), but slightly weaker than the positive control (COM701-hIgG1). The blocking effects of LC-BsAb-009 and LC-BsAb-010 are not as good as their corresponding monoclonal antibodies (PVRIG-A105-H1) and the positive control (COM701-hIgG1).

[5] = biological target: T2, cynomolgus monkey PVRIG (Novoprotein, …); assay: ELISA, coated cynomolgus PVRIG; remark: listed apart in the source
Experimental: as §1

[6] = biological target: T3, human PVRIG-mFc protein (Acro, …); assay: HTRF competition, PVRIG-mFc with Bio-CD112-His as competitor; remark: listed apart in the source
Experimental: as §3

[7] = biological target: T3, human PVRIG-mFc protein (Acro, …); assay: FACS blocking of PVRIG-mFc binding to CHO-K1-CD112 cells; competitor CD112
Summary of the method: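 Zombie violet-stained CHO-K1-CD112 cells were added for 30 min at 4° C, then PE goat anti-mouse IgG Fc (1:250) was applied and mean fluorescence intensity read on a BD Canto II. Curves were fitted with four-parameter logistic models in GraphPad Prism 9. IC50 and curve AUC were reported as percentages of the reference antibody values.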

% relative activity COM701-hIgG1/tested antibody [1]: 100%
% relative activity PVRIG-A50-H1b/tested antibody [1]: 153%
EC50 [1]: 0.248 nM
% relative activity COM701-hIgG1/tested antibody [2]: 100%
% relative activity PVRIG-A105-H1/tested antibody [2]: 66%
EC50 [2]: 0.0363 nM
% relative activity COM701-hIgG1/tested antibody [3]: 100%
% relative activity PVRIG-A105-H1/tested antibody [3]: 25.6%
EC50 [3]: 0.248 nM
% relative activity COM701-hIgG1/tested antibody [4]: 100%
% relative activity PVRIG-A105-H1/tested antibody [4]: 93.4%
IC50 [4]: 0.137 nM
% relative activity COM701-hIgG1/tested antibody [5]: 100%
% relative activity PVRIG-A50-H1b/tested antibody [5]: 105%
EC50 [5]: 0.0363 nM
% relative activity COM701-hIgG1/tested antibody [6]: 100%
% relative activity PVRIG-A50-H1b/tested antibody [6]: 150%
IC50 [6]: 0.137 nM
B1: COM701-hIgG1 (antibody, V domains shown)
VH: QVQLVQSGAEVKKPGASVKVSCKASGYTFTDYNINWVRQAPGQGLEWMGYIYPYIGGSGYAQKFQGRVTMTRDTSTSTVYMELSSLRSEDTAVYYCAREDKTARNAMDYWGQGTLVTVSS
VL: DIQMTQSPSSLSASVGDRVTITCRVSENIYSNLAWYQQKPGKAPKLLIYEATNLAEGVPSRFSGSGSGTDFTLTISSLQPEDFATYYCQHFWGTPYTFGQGTKLEIK
notes: Anti-PVRIG positive control

% AUC to COM701-hIgG4 [7]: 111%
% AUC to SO35-hIgG1 [7]: 64.2%
% AUC to parental Ab [7]: 97.9%
% IC50 to COM701-hIgG4 [7]: 104%
% IC50 to SO35-hIgG1 [7]: 88.1%
% IC50 to parental Ab [7]: 99.7%
% relative activity COM701-hIgG1/tested antibody [2]: 152%
% relative activity PVRIG-A105-H1/tested antibody [2]: 100%
EC50 [2]: 0.0239 nM
% relative activity COM701-hIgG1/tested antibody [3]: 390%
% relative activity PVRIG-A105-H1/tested antibody [3]: 100%
EC50 [3]: 0.0636 nM
% relative activity COM701-hIgG1/tested antibody [4]: 107%
% relative activity PVRIG-A105-H1/tested antibody [4]: 100%
IC50 [4]: 0.128 nM
B2: PVRIG-A105-H1 (Fc fusion)
chain: EVQLVESGGGLVQPGGSLRLSCAASGRTFDRHTMSWFRQAPGKEREFVATASRIPGDTYYVDSVKGRFTISRDNAKNSLYLQMNSLRAEDTAVYYCAATSAYCSEVDCYEKGSWYDNWGQGTMVTVSS
notes: VHH-human IgG1 Fc format is stated for the parental VHH antibodies; not restated for the humanized variants; also called A105.VH1; not shown: human IgG1 hinge-CH2-CH3 (Fc)
